We go through 3 substances from patent US20240117011A1.

The target of assay [1] is full-length spike B.1.617.2 (SARS-CoV-2) (UniProt P0DTC2). Nature of the assay: cell-based or functional assay.
Assay [2] has as its target spike of variant P.1 v1 on pseudovirus. Nature of the assay: cell-based or functional assay.

With REGN10987 (antibody), the neutralization, fold reduction in activity in assay [1] came to 4 fold. Turning to LY-CoV555 (antibody), in assay [1], the pseudotyped virus neutralization was over 10000 ng/mL. The substance also displayed a neutralization IC50 in assay [2] of over 10 µg/mL.

For the substance CB6 (antibody), the neutralization IC50 in assay [2] is over 10 µg/mL.
